Test results as given in US20240270846A1 (published 2024).

B1: GLS3000 G91S one-arm antibody (antibody, human IgG1, kappa, L234A L235A, N297A, name in Kabat numbering)
light: DIVMTQSPLSLPVTPGEPASISCRSSQSLVHSNRNTYLHWYQQKPGQAPRLLIYKVSNRFSGVPDRFSGSGSGTDFTLKISRVEAEDVGVYYCGQSTQVPYTFGQGTKLEIKRTVAAPSVFIFPPSDEQLKSGTASVVCLLNNFYPREAKVQWKVDNALQSGNSQESVTEQDSKDSTYSLSSTLTLSKADYEKHKVYACEVTHQGLSSPVTKSFNRGEC
heavy: QVQLVESGGGVVQPGRSLRLSCAASGFTFSNAWMHWVRQAPGKGLEWVAQIKAKSNNYATYYAESVKGRFTISRDDSKNSLYLQMNSLKTEDTAVYYCRYVHYGAYYGVDAWGQGTTVTVSSASTKGPSVFPLAPSSKSTSGGTAALGCLVKDYFPEPVTVSWNSGALTSGVHTFPAVLQSSGLYSLSSVVTVPSSSLGTQTYICNVNHKPSNTKVDKKVEPKSCDKTHTCPPCPAPEAAGGPSVFLFPPKPKDTLMISRTPEVTCVVVDVSHEDPEVKFNWYVDGVEVHNAKTKPREEQYASTYRVVSVLTVLHQDWLNGKEYKCKVSNKALPAPIEKTISKAKGQPREPQVYTLPPSRCELTKNQVSLSCAVKGFYPSDIAVEWESNGQPENNYKTTPPVLDSDGSFFLVSKLTVDKSRWQQGNVFSCSVMHEALHNHYTQKSLSLSPDYKDDDDK
chain: EPKSSDKTHTCPPCPAPELLGGPSVFLFPPKPKDTLMISRTPEVTCVVVDVSHEDPEVKFNWYVDGVEVHNAKTKPREEQYNSTYRVVSVLTVLHQDWLNGKEYKCKVSNKALPAPIEKTISKAKGQPREPQVCTLPPSRDELTKNQVSLWCLVKGFYPSDIAVEWESNGQPENNYKTTPPVLDSDGSFFLYSKLTVDKSRWQQGNVFSCSVMHEALHNRYTQKSLSLSP
B2: GLS3000 H34I one-arm antibody (antibody, human IgG1, kappa, L234A L235A, N297A, name in Kabat numbering)
light: DIVMTQSPLSLPVTPGEPASISCRSSQSLVHSNRNTYLIWYQQKPGQAPRLLIYKVSNRFSGVPDRFSGSGSGTDFTLKISRVEAEDVGVYYCGQGTQVPYTFGQGTKLEIKRTVAAPSVFIFPPSDEQLKSGTASVVCLLNNFYPREAKVQWKVDNALQSGNSQESVTEQDSKDSTYSLSSTLTLSKADYEKHKVYACEVTHQGLSSPVTKSFNRGEC
heavy: QVQLVESGGGVVQPGRSLRLSCAASGFTFSNAWMHWVRQAPGKGLEWVAQIKAKSNNYATYYAESVKGRFTISRDDSKNSLYLQMNSLKTEDTAVYYCRYVHYGAYYGVDAWGQGTTVTVSSASTKGPSVFPLAPSSKSTSGGTAALGCLVKDYFPEPVTVSWNSGALTSGVHTFPAVLQSSGLYSLSSVVTVPSSSLGTQTYICNVNHKPSNTKVDKKVEPKSCDKTHTCPPCPAPEAAGGPSVFLFPPKPKDTLMISRTPEVTCVVVDVSHEDPEVKFNWYVDGVEVHNAKTKPREEQYASTYRVVSVLTVLHQDWLNGKEYKCKVSNKALPAPIEKTISKAKGQPREPQVYTLPPSRCELTKNQVSLSCAVKGFYPSDIAVEWESNGQPENNYKTTPPVLDSDGSFFLVSKLTVDKSRWQQGNVFSCSVMHEALHNHYTQKSLSLSPDYKDDDDK
chain: EPKSSDKTHTCPPCPAPELLGGPSVFLFPPKPKDTLMISRTPEVTCVVVDVSHEDPEVKFNWYVDGVEVHNAKTKPREEQYNSTYRVVSVLTVLHQDWLNGKEYKCKVSNKALPAPIEKTISKAKGQPREPQVCTLPPSRDELTKNQVSLWCLVKGFYPSDIAVEWESNGQPENNYKTTPPVLDSDGSFFLYSKLTVDKSRWQQGNVFSCSVMHEALHNRYTQKSLSLSP
B3: GLS3000 H34G one-arm antibody (antibody, human IgG1, kappa, L234A L235A, N297A, name in Kabat numbering)
light: DIVMTQSPLSLPVTPGEPASISCRSSQSLVHSNRNTYLGWYQQKPGQAPRLLIYKVSNRFSGVPDRFSGSGSGTDFTLKISRVEAEDVGVYYCGQGTQVPYTFGQGTKLEIKRTVAAPSVFIFPPSDEQLKSGTASVVCLLNNFYPREAKVQWKVDNALQSGNSQESVTEQDSKDSTYSLSSTLTLSKADYEKHKVYACEVTHQGLSSPVTKSFNRGEC
heavy: QVQLVESGGGVVQPGRSLRLSCAASGFTFSNAWMHWVRQAPGKGLEWVAQIKAKSNNYATYYAESVKGRFTISRDDSKNSLYLQMNSLKTEDTAVYYCRYVHYGAYYGVDAWGQGTTVTVSSASTKGPSVFPLAPSSKSTSGGTAALGCLVKDYFPEPVTVSWNSGALTSGVHTFPAVLQSSGLYSLSSVVTVPSSSLGTQTYICNVNHKPSNTKVDKKVEPKSCDKTHTCPPCPAPEAAGGPSVFLFPPKPKDTLMISRTPEVTCVVVDVSHEDPEVKFNWYVDGVEVHNAKTKPREEQYASTYRVVSVLTVLHQDWLNGKEYKCKVSNKALPAPIEKTISKAKGQPREPQVYTLPPSRCELTKNQVSLSCAVKGFYPSDIAVEWESNGQPENNYKTTPPVLDSDGSFFLVSKLTVDKSRWQQGNVFSCSVMHEALHNHYTQKSLSLSPDYKDDDDK
chain: EPKSSDKTHTCPPCPAPELLGGPSVFLFPPKPKDTLMISRTPEVTCVVVDVSHEDPEVKFNWYVDGVEVHNAKTKPREEQYNSTYRVVSVLTVLHQDWLNGKEYKCKVSNKALPAPIEKTISKAKGQPREPQVCTLPPSRDELTKNQVSLWCLVKGFYPSDIAVEWESNGQPENNYKTTPPVLDSDGSFFLYSKLTVDKSRWQQGNVFSCSVMHEALHNRYTQKSLSLSP
B4: GLS3000 G91T one-arm antibody (antibody, human IgG1, kappa, L234A L235A, N297A, name in Kabat numbering)
light: DIVMTQSPLSLPVTPGEPASISCRSSQSLVHSNRNTYLHWYQQKPGQAPRLLIYKVSNRFSGVPDRFSGSGSGTDFTLKISRVEAEDVGVYYCGQTTQVPYTFGQGTKLEIKRTVAAPSVFIFPPSDEQLKSGTASVVCLLNNFYPREAKVQWKVDNALQSGNSQESVTEQDSKDSTYSLSSTLTLSKADYEKHKVYACEVTHQGLSSPVTKSFNRGEC
heavy: QVQLVESGGGVVQPGRSLRLSCAASGFTFSNAWMHWVRQAPGKGLEWVAQIKAKSNNYATYYAESVKGRFTISRDDSKNSLYLQMNSLKTEDTAVYYCRYVHYGAYYGVDAWGQGTTVTVSSASTKGPSVFPLAPSSKSTSGGTAALGCLVKDYFPEPVTVSWNSGALTSGVHTFPAVLQSSGLYSLSSVVTVPSSSLGTQTYICNVNHKPSNTKVDKKVEPKSCDKTHTCPPCPAPEAAGGPSVFLFPPKPKDTLMISRTPEVTCVVVDVSHEDPEVKFNWYVDGVEVHNAKTKPREEQYASTYRVVSVLTVLHQDWLNGKEYKCKVSNKALPAPIEKTISKAKGQPREPQVYTLPPSRCELTKNQVSLSCAVKGFYPSDIAVEWESNGQPENNYKTTPPVLDSDGSFFLVSKLTVDKSRWQQGNVFSCSVMHEALHNHYTQKSLSLSPDYKDDDDK
chain: EPKSSDKTHTCPPCPAPELLGGPSVFLFPPKPKDTLMISRTPEVTCVVVDVSHEDPEVKFNWYVDGVEVHNAKTKPREEQYNSTYRVVSVLTVLHQDWLNGKEYKCKVSNKALPAPIEKTISKAKGQPREPQVCTLPPSRDELTKNQVSLWCLVKGFYPSDIAVEWESNGQPENNYKTTPPVLDSDGSFFLYSKLTVDKSRWQQGNVFSCSVMHEALHNRYTQKSLSLSP
B5: GLS3000 H34F one-arm antibody (antibody, human IgG1, kappa, L234A L235A, N297A, name in Kabat numbering)
light: DIVMTQSPLSLPVTPGEPASISCRSSQSLVHSNRNTYLFWYQQKPGQAPRLLIYKVSNRFSGVPDRFSGSGSGTDFTLKISRVEAEDVGVYYCGQGTQVPYTFGQGTKLEIKRTVAAPSVFIFPPSDEQLKSGTASVVCLLNNFYPREAKVQWKVDNALQSGNSQESVTEQDSKDSTYSLSSTLTLSKADYEKHKVYACEVTHQGLSSPVTKSFNRGEC
heavy: QVQLVESGGGVVQPGRSLRLSCAASGFTFSNAWMHWVRQAPGKGLEWVAQIKAKSNNYATYYAESVKGRFTISRDDSKNSLYLQMNSLKTEDTAVYYCRYVHYGAYYGVDAWGQGTTVTVSSASTKGPSVFPLAPSSKSTSGGTAALGCLVKDYFPEPVTVSWNSGALTSGVHTFPAVLQSSGLYSLSSVVTVPSSSLGTQTYICNVNHKPSNTKVDKKVEPKSCDKTHTCPPCPAPEAAGGPSVFLFPPKPKDTLMISRTPEVTCVVVDVSHEDPEVKFNWYVDGVEVHNAKTKPREEQYASTYRVVSVLTVLHQDWLNGKEYKCKVSNKALPAPIEKTISKAKGQPREPQVYTLPPSRCELTKNQVSLSCAVKGFYPSDIAVEWESNGQPENNYKTTPPVLDSDGSFFLVSKLTVDKSRWQQGNVFSCSVMHEALHNHYTQKSLSLSPDYKDDDDK
chain: EPKSSDKTHTCPPCPAPELLGGPSVFLFPPKPKDTLMISRTPEVTCVVVDVSHEDPEVKFNWYVDGVEVHNAKTKPREEQYNSTYRVVSVLTVLHQDWLNGKEYKCKVSNKALPAPIEKTISKAKGQPREPQVCTLPPSRDELTKNQVSLWCLVKGFYPSDIAVEWESNGQPENNYKTTPPVLDSDGSFFLYSKLTVDKSRWQQGNVFSCSVMHEALHNRYTQKSLSLSP
B6: GLS3000 H34E one-arm antibody (antibody, human IgG1, kappa, L234A L235A, N297A, name in Kabat numbering)
light: DIVMTQSPLSLPVTPGEPASISCRSSQSLVHSNRNTYLEWYQQKPGQAPRLLIYKVSNRFSGVPDRFSGSGSGTDFTLKISRVEAEDVGVYYCGQGTQVPYTFGQGTKLEIKRTVAAPSVFIFPPSDEQLKSGTASVVCLLNNFYPREAKVQWKVDNALQSGNSQESVTEQDSKDSTYSLSSTLTLSKADYEKHKVYACEVTHQGLSSPVTKSFNRGEC
heavy: QVQLVESGGGVVQPGRSLRLSCAASGFTFSNAWMHWVRQAPGKGLEWVAQIKAKSNNYATYYAESVKGRFTISRDDSKNSLYLQMNSLKTEDTAVYYCRYVHYGAYYGVDAWGQGTTVTVSSASTKGPSVFPLAPSSKSTSGGTAALGCLVKDYFPEPVTVSWNSGALTSGVHTFPAVLQSSGLYSLSSVVTVPSSSLGTQTYICNVNHKPSNTKVDKKVEPKSCDKTHTCPPCPAPEAAGGPSVFLFPPKPKDTLMISRTPEVTCVVVDVSHEDPEVKFNWYVDGVEVHNAKTKPREEQYASTYRVVSVLTVLHQDWLNGKEYKCKVSNKALPAPIEKTISKAKGQPREPQVYTLPPSRCELTKNQVSLSCAVKGFYPSDIAVEWESNGQPENNYKTTPPVLDSDGSFFLVSKLTVDKSRWQQGNVFSCSVMHEALHNHYTQKSLSLSPDYKDDDDK
chain: EPKSSDKTHTCPPCPAPELLGGPSVFLFPPKPKDTLMISRTPEVTCVVVDVSHEDPEVKFNWYVDGVEVHNAKTKPREEQYNSTYRVVSVLTVLHQDWLNGKEYKCKVSNKALPAPIEKTISKAKGQPREPQVCTLPPSRDELTKNQVSLWCLVKGFYPSDIAVEWESNGQPENNYKTTPPVLDSDGSFFLYSKLTVDKSRWQQGNVFSCSVMHEALHNRYTQKSLSLSP

These binders were tested against T1, CD3 epsilon homodimer protein (UniProt P07766 23-126) (assay: SPR Biacore T200, CD3e homodimer on chip, antibody analyte;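 also: CD3 epsilon homodimer amine-coupled on CM4 sensor chip, antibodies injected as analyte at 25 °C in HBS-EP+, ratio ≥0.8 taken as binding retained versus unaltered parent antibody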).
T1 construct: Construct of the homodimer is not described; also called CD3 (CD3 epsilon)
T1 sequence (P07766 23-126): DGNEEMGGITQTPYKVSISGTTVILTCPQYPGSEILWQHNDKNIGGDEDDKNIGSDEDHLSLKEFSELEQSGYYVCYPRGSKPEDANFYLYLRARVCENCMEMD

| Binder | ratio of amounts bound (altered form/GLS3000) |
| --- | --- |
| B1 | 0.26 |
| B2 | 0.65 |
| B3 | 1.02 |
| B4 | 0.26 |
| B5 | 0.27 |
| B6 | 0.23 |
